These results are taken from patent US20120328512A1 (BRACCO IMAGING S P A, published 2012).

The labels stand for the following.
B1: Seq056-CF5 (peptide)
peptide: RWQPCPAESWTFCWDPGGGK(5FAM)-NH2
modifications: disulfide 5-13; N-terminus assumed
SMILES: C[C@@H]1NC(=O)[C@@H]2CCCN2C(=O)[C@@H](NC(=O)[C@@H]2CCCN2C(=O)[C@H](CCC(N)=O)NC(=O)[C@H](Cc2c[nH]c3ccccc23)NC(=O)[C@@H](N)CCCNC(=N)N)CSSC[C@@H](C(=O)N[C@@H](Cc2c[nH]c3ccccc23)C(=O)N[C@@H](CC(=O)O)C(=O)N2CCC[C@H]2C(=O)NCC(=O)NCC(=O)NCC(=O)N[C@@H](CCCCNC(=O)c2ccc3c(c2)C(=O)OC32c3ccc(O)cc3Oc3cc(O)ccc32)C(N)=O)NC(=O)[C@H](Cc2ccccc2)NC(=O)[C@H]([C@@H](C)O)NC(=O)[C@H](Cc2c[nH]c3ccccc23)NC(=O)[C@H](CO)NC(=O)[C@H](CCC(=O)O)NC1=O
B2: Seq057-CF5 (peptide)
peptide: RWQPCPAESWT[Cha]CWDPGGGK(CF5)-NH2
modifications: disulfide 5-13
B3: Seq035-CF5 (peptide)
peptide: Ac-GGRGWQPCPAESWTFCWDPGGGK(CF5)-NH2
modifications: disulfide 8-16
B4: Seq016-CF5 (peptide)
peptide: Ac-GWQPCPWESWTFCWDPGGGK(CF5)-NH2
modifications: disulfide 5-13
B5: Seq025-CF5 (peptide)
peptide: Ac-KKGWQPCPWESWTFCWDPGGGK(CF5)-NH2
modifications: disulfide 7-15
B6: Seq045-CF5 (peptide)
peptide: Ac-SGSG[AEEA]WQPCPAESWTFCWDPGGGK(CF5)-NH2
modifications: disulfide 9-17
B7: Seq017-CF5 (peptide)
peptide: Ac-SGSG[AEEA]WQPCPWESWTFCWDPGGGK(CF5″)-NH2
modifications: disulfide 9-17
B8: Seq046-CF5 (peptide)
peptide: Ac-RRGGWQPCPAESWTFCWDPGGGK(CF5)-NH2
modifications: disulfide 8-16
B9: Seq014-CF5 (peptide)
peptide: Ac-GPPGWQPCPWESWTFCWDPGGGK(CF5)-NH2
modifications: disulfide 8-16
B10: Seq024-CF5 (peptide)
peptide: Ac-SGSGSGSGWQPCPWESWTFCWDPGGGK(CF5)-NH2
modifications: disulfide 12-20
B11: Seq042-CF5 (peptide)
peptide: Ac-WQPCPAESWT[Cha]CWDPGGGK(CF5)-NH2
modifications: disulfide 4-12
notes: also called Ac-WQPC*PAESWT-Cha-C*WDPGGGK(CF5)-NH2
B12: Seq000-CF5 (peptide)
peptide: Ac-WQPCPWESWTFCWDPGGGK(CF5)-NH2
modifications: disulfide 4-12
notes: also called standard 5CF-labeled peptide
B13: Seq040-CF5 (peptide)
peptide: Ac-SGSGSGSGWQPCPAESWTFCWDPGGGK(CF5)-NH2
modifications: disulfide 12-20
B14: Seq015-CF5 (peptide)
peptide: Ac-GGRGWQPCPWESWTFCWDPGGGK(CF5)-NH2
modifications: disulfide 8-16
B15: Seq026-CF5 (peptide)
peptide: Ac-KGKGKGWQPCPWESWTFCWDPGGGK(CF5)-NH2
modifications: disulfide 10-18
B16: Seq034-CF5 (peptide)
peptide: Ac-GPPGWQPCPAESWTFCWDPGGGK(CF5)-NH2
modifications: disulfide 8-16
B17: Seq024-P (peptide)
peptide: Ac-SGSGSGSGWQPCPWESWTFCWDPGGGK-NH2
modifications: disulfide 12-20
B18: Seq031-P (peptide)
peptide: Ac-S(αGalNAc)[AEEA]WQPCPWESWTFCWDPGGGK-NH2
modifications: disulfide 6-14
SMILES: CC(=O)N[C@H]1[C@@H](OC[C@H](NC(C)=O)C(=O)NCCOCCOCC(=O)N[C@@H](Cc2c[nH]c3ccccc23)C(=O)N[C@@H](CCC(N)=O)C(=O)N2CCC[C@H]2C(=O)N[C@H]2CSSC[C@@H](C(=O)N[C@@H](Cc3c[nH]c4ccccc34)C(=O)N[C@@H](CC(=O)O)C(=O)N3CCC[C@H]3C(=O)NCC(=O)NCC(=O)NCC(=O)N[C@@H](CCCCN)C(N)=O)NC(=O)[C@H](Cc3ccccc3)NC(=O)[C@H]([C@@H](C)O)NC(=O)[C@H](Cc3c[nH]c4ccccc34)NC(=O)[C@H](CO)NC(=O)[C@H](CCC(=O)O)NC(=O)[C@H](Cc3c[nH]c4ccccc34)NC(=O)[C@@H]3CCCN3C2=O)O[C@H](CO)[C@H](O)[C@@H]1O
B19: Seq023-P (peptide)
peptide: H-RWQPCPWESWTFCWDPGGGK-NH2
modifications: disulfide 5-13
B20: Seq032-P (peptide)
peptide: Ac-WQPC[Hyp]WESWTFCWDPGGGK-NH2
modifications: disulfide 4-12
notes: also called Ac-WQPC*-Hypt4-WESWTFC*WDPGGGK-NH2
B21: Seq025-P (peptide)
peptide: Ac-KKGWQPCPWESWTFCWDPGGGK-NH2
modifications: disulfide 7-15
B22: Seq022-P (peptide)
peptide: H-RGWQPCPWESWTFCWDPGGGK-NH2
modifications: disulfide 6-14
B23: Seq047-P (peptide)
peptide: Ac-RRGGWQPC[Hyp]WESWTFCWDPGGGK-NH2
modifications: disulfide 8-16
SMILES: CC(=O)N[C@@H](CCCNC(=N)N)C(=O)N[C@@H](CCCNC(=N)N)C(=O)NCC(=O)NCC(=O)N[C@@H](Cc1c[nH]c2ccccc12)C(=O)N[C@@H](CCC(N)=O)C(=O)N1CCC[C@H]1C(=O)N[C@H]1CSSC[C@@H](C(=O)N[C@@H](Cc2c[nH]c3ccccc23)C(=O)N[C@@H](CC(=O)O)C(=O)N2CCC[C@H]2C(=O)NCC(=O)NCC(=O)NCC(=O)N[C@@H](CCCCN)C(N)=O)NC(=O)[C@H](Cc2ccccc2)NC(=O)[C@H]([C@@H](C)O)NC(=O)[C@H](Cc2c[nH]c3ccccc23)NC(=O)[C@H](CO)NC(=O)[C@H](CCC(=O)O)NC(=O)[C@H](Cc2c[nH]c3ccccc23)NC(=O)[C@@H]2C[C@@H](O)CN2C1=O
B24: Seq029-P (peptide)
peptide: Ac-RRGGWQPCPWESWTFCWDPGGGK-NH2
modifications: disulfide 8-16
SMILES: CC(=O)N[C@@H](CCCNC(=N)N)C(=O)N[C@@H](CCCNC(=N)N)C(=O)NCC(=O)NCC(=O)N[C@@H](Cc1c[nH]c2ccccc12)C(=O)N[C@@H](CCC(N)=O)C(=O)N1CCC[C@H]1C(=O)N[C@H]1CSSC[C@@H](C(=O)N[C@@H](Cc2c[nH]c3ccccc23)C(=O)N[C@@H](CC(=O)O)C(=O)N2CCC[C@H]2C(=O)NCC(=O)NCC(=O)NCC(=O)N[C@@H](CCCCN)C(N)=O)NC(=O)[C@H](Cc2ccccc2)NC(=O)[C@H]([C@@H](C)O)NC(=O)[C@H](Cc2c[nH]c3ccccc23)NC(=O)[C@H](CO)NC(=O)[C@H](CCC(=O)O)NC(=O)[C@H](Cc2c[nH]c3ccccc23)NC(=O)[C@@H]2CCCN2C1=O
B25: Seq014-P (peptide)
peptide: Ac-GPPGWQPCPWESWTFCWDPGGGK-NH2
modifications: disulfide 8-16
B26: Seq026-P (peptide)
peptide: Ac-KGKGKGWQPCPWESWTFCWDPGGGK-NH2
modifications: disulfide 10-18
B27: Seq005-P (peptide)
peptide: Ac-WQPCPAESWTFCWDPGGGK-NH2
modifications: disulfide 4-12
SMILES: CC(=O)N[C@@H](Cc1c[nH]c2ccccc12)C(=O)N[C@@H](CCC(N)=O)C(=O)N1CCC[C@H]1C(=O)N[C@H]1CSSC[C@@H](C(=O)N[C@@H](Cc2c[nH]c3ccccc23)C(=O)N[C@@H](CC(=O)O)C(=O)N2CCC[C@H]2C(=O)NCC(=O)NCC(=O)NCC(=O)N[C@@H](CCCCN)C(N)=O)NC(=O)[C@H](Cc2ccccc2)NC(=O)[C@H]([C@@H](C)O)NC(=O)[C@H](Cc2c[nH]c3ccccc23)NC(=O)[C@H](CO)NC(=O)[C@H](CCC(=O)O)NC(=O)[C@H](C)NC(=O)[C@@H]2CCCN2C1=O

Bridge positions count the residues as written; N and C are the ends. Square brackets hold non-standard residues; d marks the D form. Primed or numbered codes have the meaning given here. Ends that are not written are not given here. * marks the point of attachment. αGalNAc = CC(=O)N[C@@H]1[C@@H](O)[C@@H](O)[C@@H](CO)O[C@@H]1*; 5FAM = O=C1OC2(c3ccc(O)cc3Oc3cc(O)ccc32)c2ccc(C(=O)*)cc21; CF5″ = 5-carboxyfluorescein label; Hyp = O=C(O)[C@@H]1C[C@@H](O)CN1; Cha = N[C@@H](CC1CCCCC1)C(=O)O; CF5 = 5-carboxyfluorescein; AEEA = NCCOCCOCC(=O)O

The first experiment concerns the target DDE. Description: direct binding fluorescence polarization: CF5-labeled peptide titrated with DDE; n = 2. In general terms: In fluorescence polarisation assays a small probe gives low polarisation when free and higher when bound to something large.
In turn, B1 registered a dissociation constant Kd of 60 nM. For B2, the Kd was 30 nM.

For the next experiment, the target named is T1, DDE.
T1 chain 1: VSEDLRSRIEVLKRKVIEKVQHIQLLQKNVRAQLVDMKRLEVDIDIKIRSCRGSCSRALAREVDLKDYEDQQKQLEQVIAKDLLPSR
T1 chain 2: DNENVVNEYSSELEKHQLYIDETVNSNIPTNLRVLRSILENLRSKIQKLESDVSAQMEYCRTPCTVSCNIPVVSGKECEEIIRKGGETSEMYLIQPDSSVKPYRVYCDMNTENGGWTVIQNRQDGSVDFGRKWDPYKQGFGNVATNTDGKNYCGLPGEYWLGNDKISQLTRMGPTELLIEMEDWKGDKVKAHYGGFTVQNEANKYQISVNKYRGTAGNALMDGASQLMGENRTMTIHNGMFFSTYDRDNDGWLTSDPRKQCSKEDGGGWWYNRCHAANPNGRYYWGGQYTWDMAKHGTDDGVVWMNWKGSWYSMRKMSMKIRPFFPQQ
T1 chain 3: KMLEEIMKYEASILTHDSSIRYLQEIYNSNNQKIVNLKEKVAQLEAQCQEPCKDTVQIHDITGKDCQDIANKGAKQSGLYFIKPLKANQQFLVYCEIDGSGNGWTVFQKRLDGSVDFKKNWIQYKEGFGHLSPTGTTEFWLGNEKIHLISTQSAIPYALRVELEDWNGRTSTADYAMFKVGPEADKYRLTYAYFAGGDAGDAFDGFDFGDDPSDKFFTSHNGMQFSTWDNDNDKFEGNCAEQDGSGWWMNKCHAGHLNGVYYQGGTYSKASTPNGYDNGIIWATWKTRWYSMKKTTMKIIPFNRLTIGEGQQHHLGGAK
T1 chain 4: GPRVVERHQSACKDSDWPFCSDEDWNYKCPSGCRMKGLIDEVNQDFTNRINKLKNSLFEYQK
T1 chain 5: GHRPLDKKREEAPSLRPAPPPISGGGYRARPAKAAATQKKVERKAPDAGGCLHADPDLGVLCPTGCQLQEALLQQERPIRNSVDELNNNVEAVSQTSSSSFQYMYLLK
T1 chain 6: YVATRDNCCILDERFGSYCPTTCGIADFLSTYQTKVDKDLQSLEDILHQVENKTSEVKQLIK
The experiment is described as above.
Molecule B3 displayed a Kd of 520 nM. This lies in the sub-micromolar range. Same read-out and setting: as for B4, the figure is 230 nM; as for B5, 710 nM.

In turn, B6 displayed a Kd of 570 nM. B7 yielded a Kd of 450 nM.

Molecule B8 gave a dissociation constant Kd of 220 nM.

In turn, B9 registered a Kd of 250 nM. As for B10, the dissociation constant (Kd) turned out to be 470 nM. For the molecule B11, the Kd came out at 170 nM.

The molecule B12 showed a Kd of 390 nM. The same measure, in the same setting: as for B13, the figure is 530 nM. B14 showed a Kd of 290 nM. On the same count and under the same terms, as for B15, the figure is 760 nM; as for B16, 310 nM.

The next experiment deals with T1, DDE. Description: competition fluorescence polarization: unlabeled peptide against Seq000-CF5 tracer on DDE; n = 2.
In the case of B17, the “Rel IC50” value was 0.527 ratio to the reference peptide. Consider B18, for which the “Rel IC50” value is 1.15 ratio to the reference peptide.

Consider B19, for which the “Rel IC50” value was 0.47 ratio to the reference peptide.

As for B20, the “Rel IC50” value is 0.55 ratio to the reference peptide. For the molecule B21, the “Rel IC50” value is 0.357 ratio to the reference peptide.

In the case of B22, the “Rel IC50” value is 0.511 ratio to the reference peptide.

As to B23, the “Rel IC50” value was 0.75 ratio to the reference peptide.

As for B24, the “Rel IC50” value was 0.125 ratio to the reference peptide. Still for that read-out and setting: as for B25, the figure is 0.235 ratio to the reference peptide.

Turning to B26, the “Rel IC50” value was 0.595 ratio to the reference peptide.

In the case of B27, the “Rel IC50” value is 0.875 ratio to the reference peptide.

One may read the Kd as the equilibrium constant for the complex coming apart.
